Laboratory results from the supplement of paper PMC10724198.
± gives the standard deviation of the averaged measurements.

system: Saccharomyces cerevisiae; assay: protein stability index of tFT-peptide fusion (C-terminal peptide) (PSI (0-1 scale)); higher = more stable (slower turnover); settings: genetic background: wild type; temperature: 30 C
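Also: PSI is a weighted mean of sequencing reads over stability bins, variants kept only with over 10 reads, mCherry proximal and sfGFP distal, peptide attached via GGGS linker.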

Sequence	protein stability index
APHYPTGPTVKI	0.692 ± 0.033
PRLPPRSPRPPA	0.7369 ± 0.0048
GAQSAVLQNPPA	0.6238 ± 0.0042
CLFLRLSPSCSR	0.686 ± 0.04
EEKRPWRRELLS	0.562 ± 0.025
PLRPGILLNKLP	0.646 ± 0.046
PGRSRGGPPERR	0.6386 ± 0.0035
KMCISLGTVLAV	0.5504 ± 0.0055
SVATFDLHAGEW	0.75 ± 0.01
LPPPPPPPASPD	0.699 ± 0.058
PPPLSCPRPPIT	0.664 ± 0.031
SIYIEKERKMIV	0.686 ± 0.025
PAFPPPLPRRFL	0.693 ± 0.23
PPCPAPLSPPLG	0.676 ± 0.049
PPPRTLARSRLP	0.74 ± 0.016
MLSWKASWRQPV	0.664 ± 0.021
ASFFTARMYIIF	0.676 ± 0.031
WVSGLVSIGACL	0.683 ± 0.0076
VLFLGVRCSCLG	0.533 ± 0.014
LLMHPCTVELIS	0.594 ± 0.042
SSVSARHVPCSP	0.689 ± 0.027
PPPSDPPPSPPP	0.665 ± 0.016
AGGVEGRRRVGE	0.642 ± 0.073
PLAHYRPLPPRL	0.787 ± 0.063
VGLLQRSLAFVL	0.612 ± 0.031

Sequence	protein stability index
GKGRIWTGRKGC	0.68 ± 0.098
WWVGVVGCGSGA	0.676 ± 0.11
PPFPKFPRPRLH	0.738 ± 0.04
GELGGRAWVERG	0.683 ± 0.044
KRRSHRQHSRRR	0.559 ± 0.032
RQVERRARRDRV	0.671 ± 0.055
AGGQRCNWGNTI	0.6778 ± 0.0053
RGAHPCLDLRSE	0.654 ± 0.067
REGYGVGRERGD	0.649 ± 0.017
LVCPLFCSRWWV	0.674 ± 0.1
SRRSCTLLSTTW	0.698 ± 0.022
ERRGAAGAGSTR	0.744 ± 0.045
ELCPFLPLFLTY	0.551 ± 0.03
RFPPWVSSIFAF	0.494 ± 0.0082
VSVWLGSARWVG	0.628 ± 0.0086
PCCYAGLHFFLG	0.626 ± 0.068
HTNKNTTIQNKK	0.702 ± 0.11
KKEEKKRRKPQR	0.626 ± 0.039
LHFGSSSSRDFM	0.709 ± 0.027
SFGSAANSRAYI	0.749 ± 0.042
DMSQKSENKKLI	0.689 ± 0.011
GWAWGVALGVRG	0.54189 ± 0.00034
AGARPEGPRWGE	0.703 ± 0.021
PFCLPRPVRGVL	0.728 ± 0.1
PRAPPPSPPPRP	0.651 ± 0.04

Sequence	protein stability index
AAPPAYGPPPPP	0.6974 ± 0.0025
DFVESKVCSCSV	0.666 ± 0.01
KKKKKNKKKKKK	0.705 ± 0.046
LPPPPTCYDHPL	0.676 ± 0.052
KTTKEKESQEKN	0.723 ± 0.029
SGPYPVGKQRSE	0.649 ± 0.05
MEGRVARAYSDE	0.688 ± 0.04
GQAGGRVEVREP	0.6887 ± 0.005
LVRFRADEPRGG	0.688 ± 0.058
SKGECYSETDVA	0.684 ± 0.018
PRFGADVQKLVG	0.653 ± 0.045
SLLHGVFFWVLT	0.572 ± 0.013
KETSERKNKETG	0.624 ± 0.041
VYHCRLSQHRTL	0.717 ± 0.034
GFLSYWYISFPF	0.641 ± 0.014
PPAPPPVSPPRP	0.7075 ± 0.0027
CLSSVSLSNVSV	0.669 ± 0.068
GSACSLCGLYFN	0.709 ± 0.073
PSPPPPGPPLAL	0.632 ± 0.033
GGVVVGRGVCVF	0.626 ± 0.032
REERSRQSLVKW	0.675 ± 0.06
GIPWSVLLSSYW	0.713 ± 0.033
PPQPTSPIRMPT	0.735 ± 0.03
LFELVRTCDRCV	0.7 ± 0.03
GFLCARGAHSMT	0.704 ± 0.013

Sequence	protein stability index
EVYPAEADVFGG	0.69 ± 0.052
WGSVGVVGLFSG	0.69 ± 0.057
GEDFRVLVFVRL	0.556 ± 0.0099
LNHSLLHILSRV	0.656 ± 0.022
DRSLRLGSLTSG	0.6 ± 0.017
GYILSFPSVGGW	0.724 ± 0.049
SRGRAGESRPRG	0.712 ± 0.069
IERGLEGHLGHC	0.668 ± 0.035
VSNIVGRSLSCR	0.688 ± 0.014
RLPSLTGLELFS	0.685 ± 0.025
ILCPFSGCGAGG	0.683 ± 0.022
PRDTTIPLVLGF	0.63756 ± 0.00037
GWGFVGGTVAAV	0.705 ± 0.034
LFFLLPSSPIGF	0.705 ± 0.011
CCSSCFVLSKAA	0.6463 ± 0.0031
KKKKNKKNKRKN	0.613 ± 0.034
GCRCSSGLGGFW	0.649 ± 0.11
SFSLPLSPPSFF	0.721 ± 0.058
LVIVFDLGNMLH	0.538 ± 0.038
GSGGLRVVCLLM	0.653 ± 0.027
SNVRSRGAGISM	0.729 ± 0.087
GRTKFIPTPSTY	0.712 ± 0.023
DIGGLGYCDCVK	0.758 ± 0.054
PPPHIPPPPLSA	0.682 ± 0.025
HSIPWTRTRPGC	0.687 ± 0.016

Sequence	protein stability index
VSLGALFEFRAA	0.745 ± 0.015
YYRLLACQRPSR	0.679 ± 0.027
FGCGLYPLRVLH	0.604 ± 0.034
RLLGRPFRHERG	0.698 ± 0.043
RITWRSKKGLVI	0.71 ± 0.031
PLSPFLRFLSSP	0.605 ± 0.072
SRPVSSFPPPLR	0.664 ± 0.071
LPPLPPPSPFPS	0.762 ± 0.074
YMAGPAQGRDGS	0.668 ± 0.013
VSNVSDSGHPYL	0.6777 ± 0.0021
AALVFPSCVVGG	0.60949 ± 0.00034
PPLPPPSVRPSS	0.63 ± 0.028
GGGDRDGGTASG	0.698 ± 0.073
GSPTSAPLSPPP	0.686 ± 0.0038
LTVLGSGNLTRS	0.729 ± 0.029
SPPAALLPLFLR	0.676 ± 0.051
PPPPPRPPLPHL	0.686 ± 0.038
GGWGWEGRGGSG	0.677 ± 0.014
SVLPELHAVPLF	0.679 ± 0.008
VSGFVAALRIFL	0.657 ± 0.025
MFCRSPSYFPTV	0.739 ± 0.035
DGTLTAKVIETF	0.66 ± 0.058
ASVCASCYTGGF	0.665 ± 0.03
VKSTRRHGRPQS	0.723 ± 0.057
ARHPLCLPVLLT	0.548 ± 0.02

Sequence	protein stability index
YADTCEGDNLTS	0.661 ± 0.03
GRCHRFQWSVRR	0.681 ± 0.015
PPSSPPLAPPFL	0.709 ± 0.029
QAHRHASPKTRT	0.654 ± 0.032
LSGWIRTLLPET	0.674 ± 0.047
RLGGRGGRLGAE	0.655 ± 0.0068
FTACSVCVETMN	0.678 ± 0.17
PRSPPPPLLSPP	0.692 ± 0.037
KPPCFSPTHHCP	0.713 ± 0.0018
PLSPPLPPAIPS	0.698 ± 0.063
TPPIPTTTSNFS	0.734 ± 0.052
LDPGPLVRTPRL	0.692 ± 0.076
TGYEVAGWVNWC	0.711 ± 0.018
PGLLPTPSSPVP	0.821 ± 0.032
NVGACRVMKTVY	0.6876 ± 0.003
GRGGVGWGEWDR	0.729 ± 0.056
GPPPLPSPPSHP	0.753 ± 0.1
PPPHAKPPPGPL	0.672 ± 0.019
DREGIELHKNKD	0.658 ± 0.0072
ALRFLISCRLLD	0.62622 ± 0.00026
LIQSDKTPRTTR	0.696 ± 0.012
